What was measured:
CARM1 = CARM1 (UniProt Q86X55); assay: anti-HA co-IP, anti-MYC blot; settings: reference: MYC-CARM1 wild type; sites Y149
RUNX1 = RUNX1 (UniProt Q01196); assay: anti-MYC IP, anti-RUNX1 blot; settings: reference: MYC-CARM1 wild type

Chain of UniProt Q86X55 (Q86X55 whole entry Y149F): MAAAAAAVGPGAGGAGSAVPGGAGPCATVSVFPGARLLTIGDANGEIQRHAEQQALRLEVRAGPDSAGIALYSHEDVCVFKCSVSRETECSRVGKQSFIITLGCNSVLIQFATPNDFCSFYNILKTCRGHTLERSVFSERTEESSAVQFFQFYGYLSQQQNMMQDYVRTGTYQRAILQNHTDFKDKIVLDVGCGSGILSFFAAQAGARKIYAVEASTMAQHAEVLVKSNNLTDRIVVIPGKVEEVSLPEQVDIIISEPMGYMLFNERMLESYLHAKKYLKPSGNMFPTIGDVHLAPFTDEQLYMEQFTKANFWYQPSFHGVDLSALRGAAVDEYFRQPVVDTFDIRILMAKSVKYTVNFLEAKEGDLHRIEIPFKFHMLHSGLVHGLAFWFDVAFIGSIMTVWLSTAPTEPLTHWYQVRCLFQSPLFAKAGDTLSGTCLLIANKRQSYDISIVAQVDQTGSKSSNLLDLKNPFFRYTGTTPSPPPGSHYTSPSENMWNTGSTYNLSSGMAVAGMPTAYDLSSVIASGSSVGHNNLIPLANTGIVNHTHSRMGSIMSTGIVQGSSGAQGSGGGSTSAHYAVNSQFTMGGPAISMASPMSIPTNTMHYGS

Substance: CARM1 (from UniProt Q86X55) MYC-CARM1 Y149F
- binding against the reference (CARM1): weaker
- binding against the reference (RUNX1; sites Y149): lost

Substance: CARM1 (from UniProt Q86X55) MYC-CARM1 Y334F
- binding against the reference (RUNX1; sites Y334): lost
